Reference: US20250002610A1 (Genmab, published 2025)

Experiments:
[1] = target: T1, human FAPα (Fibroblast activation protein alpha), cell surface expressed (human, UniProt Q12884 1-760); assay: flow cytometry, CAFs, n = 1
T1 construct: Endogenous on human lung fibroblasts and CAFs
T1 sequence: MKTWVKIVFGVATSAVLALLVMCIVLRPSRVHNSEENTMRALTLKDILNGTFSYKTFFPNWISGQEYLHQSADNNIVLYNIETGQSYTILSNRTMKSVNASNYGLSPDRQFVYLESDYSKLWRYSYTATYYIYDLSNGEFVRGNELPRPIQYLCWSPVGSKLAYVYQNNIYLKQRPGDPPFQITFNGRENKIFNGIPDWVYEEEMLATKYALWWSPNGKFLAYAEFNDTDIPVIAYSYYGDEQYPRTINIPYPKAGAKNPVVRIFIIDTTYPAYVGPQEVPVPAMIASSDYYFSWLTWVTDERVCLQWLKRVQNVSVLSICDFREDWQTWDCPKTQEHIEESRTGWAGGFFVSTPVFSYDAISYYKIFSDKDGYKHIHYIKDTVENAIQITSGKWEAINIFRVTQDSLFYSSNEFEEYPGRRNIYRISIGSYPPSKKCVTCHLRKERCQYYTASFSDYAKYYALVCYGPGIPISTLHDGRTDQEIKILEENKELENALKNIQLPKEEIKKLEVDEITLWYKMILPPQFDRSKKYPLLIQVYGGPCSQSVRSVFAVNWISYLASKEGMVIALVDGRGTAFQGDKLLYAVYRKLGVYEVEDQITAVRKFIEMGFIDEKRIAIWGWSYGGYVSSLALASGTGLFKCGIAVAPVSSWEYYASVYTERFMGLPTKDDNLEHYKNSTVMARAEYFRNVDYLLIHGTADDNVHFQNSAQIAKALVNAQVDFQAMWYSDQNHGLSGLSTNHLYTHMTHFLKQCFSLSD
Experimental: (§1) Binding of bispecific or monoclonal antibodies carrying the anti-FAPα arm derived from IgG1-FAPα-FERL (BisG1-FAPα-FERL/DR4-FERR, BisG1-FAPα-FERL/b12-FERR, and IgG1-FAPα-FERL) to cell surface expressed human FAPα was analyzed by flow cytometry using human lung fibroblasts and CAFs, which endogenously express FAPα. BisG1-b12-FERL/b12-FERR was used as negative control.
(§2) Human lung fibroblasts and CAFs (50,000 cells/well) were seeded in 96-Well round bottom plates (Greiner Bio-one, Cat #650101). Antibody dilutions were prepared using fluorescence-activated cell sorting (FACS) buffer, consisting of phosphate buffer saline (PBS, Lonza, Cat #BE17-517Q)+1% Bovine Serum Albumin (BSA, Roche, Cat #10735086001)+0.02% Sodium Azide (Bio-World, Cat #41920044-3). Plates were centrifuged, supernatant was removed, cells were resuspended in 50 μL of human Fc Block (BD, Cat #564220, diluted 1:100 in FACS buffer) and 50 μL of viability stain TO-PRO-3 Iodide (Thermo Fisher, Cat #T3605, diluted 1: 25,000 in FACS buffer), and incubated for 15 min at 4° C. Plates were washed three times with FACS buffer. […] Antibody binding to viable cells (TO-PRO-3 negative) was analyzed by flow cytometry on a FACSCelesta™ (BD biosciences) and data were processed using FlowJo_v10.8.1 (FlowJo LLC). Geomean fluorescence intensity, gMFI, was determined and visualized using GraphPad Prism.

[2] = target: T1, human FAPα (Fibroblast activation …); assay: flow cytometry, CAFs, n = 2
Experimental: as §1, §2

[3] = target: human DR4 with death domain deletion on ExpiCHO-S cells (human); assay: flow cytometry, ExpiCHO-S cells expressing human DR4, average ± SEM
Sequence of human DR4 with death domain deletion on ExpiCHO-S cells (human) (chain, as listed by the source limits assumed, stated change not applied): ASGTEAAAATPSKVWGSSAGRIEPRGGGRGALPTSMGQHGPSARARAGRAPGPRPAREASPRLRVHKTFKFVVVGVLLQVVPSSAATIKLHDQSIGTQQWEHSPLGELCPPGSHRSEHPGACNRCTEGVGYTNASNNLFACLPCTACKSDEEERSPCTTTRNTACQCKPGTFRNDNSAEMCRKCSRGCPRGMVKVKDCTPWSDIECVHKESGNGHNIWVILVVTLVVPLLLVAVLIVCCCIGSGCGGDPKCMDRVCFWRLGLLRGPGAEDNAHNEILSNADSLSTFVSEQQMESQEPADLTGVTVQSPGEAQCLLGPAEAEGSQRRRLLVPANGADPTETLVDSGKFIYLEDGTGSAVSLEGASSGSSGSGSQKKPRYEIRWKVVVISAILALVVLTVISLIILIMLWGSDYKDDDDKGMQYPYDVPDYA

human DR4HsECD-FcHisCtag = target: T2, human DR4HsECD-FcHisCtag (human); assay: BLI, antigen captured on anti-Penta-HIS sensors
T2 construct: also called recombinant human DR4
T2 sequence (chain, as listed by the source limits assumed): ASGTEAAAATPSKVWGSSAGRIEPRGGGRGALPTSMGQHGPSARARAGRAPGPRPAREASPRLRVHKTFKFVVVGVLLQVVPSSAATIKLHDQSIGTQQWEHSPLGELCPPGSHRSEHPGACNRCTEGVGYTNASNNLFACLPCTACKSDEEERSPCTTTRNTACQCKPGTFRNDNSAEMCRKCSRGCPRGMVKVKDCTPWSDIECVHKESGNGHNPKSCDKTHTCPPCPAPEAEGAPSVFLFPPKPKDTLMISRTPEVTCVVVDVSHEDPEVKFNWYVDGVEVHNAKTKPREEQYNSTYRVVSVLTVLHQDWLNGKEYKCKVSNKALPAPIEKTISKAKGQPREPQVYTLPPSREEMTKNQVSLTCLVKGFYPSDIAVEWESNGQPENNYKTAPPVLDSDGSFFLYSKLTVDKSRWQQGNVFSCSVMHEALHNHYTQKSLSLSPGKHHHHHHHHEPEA
Experimental: The binding affinity of BisG1-FAPα-FERL/DR4-FERR, BisG1-b12-FERL/DR4-FERR and control BisG1-FAPα-FERL/b12-FERR to recombinant human and cynomolgus monkey DR4 protein was determined using label-free biolayer interferometry on an Octet HTX instrument (Sartorius).
The protocol detailed in Example 5 was used with the following differences: anti-Penta-HIS biosensors (Sartorius, Cat #18-5120) were used; the sensors were preconditioned by exposure to 10 mM glycine (Sigma-Aldrich, Cat #15527) buffer pH 1.5 for 5 s, followed by neutralization in Sample Diluent (Sartorius, Cat #18-1104) for 5 s; both steps were repeated 2 times; the sensors were loaded with 50 nM human DR4HsECD-FcHisCtag (SEQ ID NO: 66), or cynomolgus DR4MfECD-FcHisCtag (SEQ ID NO: 67), for 600 s; the dissociation time was 1,000 s; The window of interest for the dissociation time was set at 100 s for the cynomolgus antigen and at 1,000 s for the human antigen.

B1: BisG1-FAPα-FERL/DR4-FERR (bispecific antibody, human IgG1, kappa, lambda)
heavy 1: EVQLLESGGGLVQPGGSPRLSCEASGFTFSSYALSWVRQAPGKGLEWVSAISGSGGGRYYADSVKGRFTISRDNSKNTLFLQMNSLRAEDTAVYYCAKEGYSSSGTYWDHWGQGTLVTVSSASTKGPSVFPLAPSSKSTSGGTAALGCLVKDYFPEPVTVSWNSGALTSGVHTFPAVLQSSGLYSLSSVVTVPSSSLGTQTYICNVNHKPSNTKVDKRVEPKSCDKTHTCPPCPAPEFERGPSVFLFPPKPKDTLMISRTPEVTCVVVDVSHEDPEVKFNWYVDGVEVHNAKTKPREEQYNSTYRVVSVLTVLHQDWLNGKEYKCKVSNKALPAPIEKTISKAKGQPREPQVYTLPPSREEMTKNQVSLTCLVKGFYPSDIAVEWESNGQPENNYKTTPPVLDSDGSFLLYSKLTVDKSRWQQGNVFSCSVMHEALHNHYTQKSLSLSPG
light 1: AIQMTQSPSSVSASVGDRVTITCRASQGVSSWLAWYQQKPGRAPKLLIYVASTLQSGVPSRFSGSGSGTDFTLTINSLQPEDFATYYCQQANSFPPTFGQGTRLEMKRTVAAPSVFIFPPSDEQLKSGTASVVCLLNNFYPREAKVQWKVDNALQSGNSQESVTEQDSKDSTYSLSSTLTLSKADYEKHKVYACEVTHQGLSSPVTKSFNRGEC
heavy 2: QVQLQESGPGLVKPSGTLSLTCAVSGGSISSYSWWSWIRQPPGKGLEWIGELYHSGSTNYNPSLKSRVTISVDKSKNQFSLKLRSVTAADTAVYYCVRGVATIDYWGQGTLVTVSSASTKGPSVFPLAPSSKSTSGGTAALGCLVKDYFPEPVTVSWNSGALTSGVHTFPAVLQSSGLYSLSSVVTVPSSSLGTQTYICNVNHKPSNTKVDKRVEPKSCDKTHTCPPCPAPEFERGPSVFLFPPKPKDTLMISRTPEVTCVVVDVSHEDPEVKFNWYVDGVEVHNAKTKPREEQYNSTYRVVSVLTVLHQDWLNGKEYKCKVSNKALPAPIEKTISKAKGQPREPQVYTLPPSREEMTKNQVSLTCLVKGFYPSDIAVEWESNGQPENNYKTTPPVLDSDGSFFLYSRLTVDKSRWQQGNVFSCSVMHEALHNHYTQKSLSLSPG
light 2: QSALTQPPSASGSPGQSVTISCTGTSSDVGGYNFVSWYQQDPGKAPKLLIYEVTKRPSGVPDRFSGSKSGNTASLTVSGLQAEDEADYYCSSYAGSNNVMFGGGTKLTVLGQPKAAPSVTLFPPSSEELQANKATLVCLISDFYPGAVTVAWKADSSPVKAGVETTTPSKQSNNKYAASSYLSLTPEQWKSHRSYSCQVTHEGSTVEKTVAPTECS
notes: Human IgG1 bispecific made by controlled Fab-arm exchange of IgG1-FAPα-FERL and IgG1-DR4-FERR; monovalent for FAPα and for DR4; also called GEN1057
[1]
  EC50: 0.159 µg/mL
[2]
  EC50: 0.232 µg/mL
[3]
  EC50: 0.5 µg/mL

B2: BisG1-FAPα-FERL/b12-FERR (bispecific antibody, human IgG1, kappa)
heavy 1: EVQLLESGGGLVQPGGSPRLSCEASGFTFSSYALSWVRQAPGKGLEWVSAISGSGGGRYYADSVKGRFTISRDNSKNTLFLQMNSLRAEDTAVYYCAKEGYSSSGTYWDHWGQGTLVTVSSASTKGPSVFPLAPSSKSTSGGTAALGCLVKDYFPEPVTVSWNSGALTSGVHTFPAVLQSSGLYSLSSVVTVPSSSLGTQTYICNVNHKPSNTKVDKRVEPKSCDKTHTCPPCPAPEFERGPSVFLFPPKPKDTLMISRTPEVTCVVVDVSHEDPEVKFNWYVDGVEVHNAKTKPREEQYNSTYRVVSVLTVLHQDWLNGKEYKCKVSNKALPAPIEKTISKAKGQPREPQVYTLPPSREEMTKNQVSLTCLVKGFYPSDIAVEWESNGQPENNYKTTPPVLDSDGSFLLYSKLTVDKSRWQQGNVFSCSVMHEALHNHYTQKSLSLSPG
light 1: AIQMTQSPSSVSASVGDRVTITCRASQGVSSWLAWYQQKPGRAPKLLIYVASTLQSGVPSRFSGSGSGTDFTLTINSLQPEDFATYYCQQANSFPPTFGQGTRLEMKRTVAAPSVFIFPPSDEQLKSGTASVVCLLNNFYPREAKVQWKVDNALQSGNSQESVTEQDSKDSTYSLSSTLTLSKADYEKHKVYACEVTHQGLSSPVTKSFNRGEC
heavy 2: QVQLVQSGAEVKKPGASVKVSCQASGYRFSNFVIHWVRQAPGQRFEWMGWINPYNGNKEFSAKFQDRVTFTADTSANTAYMELRSLRSADTAVYYCARVGPYSWDDSPQDNYYMDVWGKGTTVIVSSASTKGPSVFPLAPSSKSTSGGTAALGCLVKDYFPEPVTVSWNSGALTSGVHTFPAVLQSSGLYSLSSVVTVPSSSLGTQTYICNVNHKPSNTKVDKRVEPKSCDKTHTCPPCPAPEFERGPSVFLFPPKPKDTLMISRTPEVTCVVVDVSHEDPEVKFNWYVDGVEVHNAKTKPREEQYNSTYRVVSVLTVLHQDWLNGKEYKCKVSNKALPAPIEKTISKAKGQPREPQVYTLPPSREEMTKNQVSLTCLVKGFYPSDIAVEWESNGQPENNYKTTPPVLDSDGSFFLYSRLTVDKSRWQQGNVFSCSVMHEALHNHYTQKSLSLSPG
light 2: EIVLTQSPGTLSLSPGERATFSCRSSHSIRSRRVAWYQHKPGQAPRLVIHGVSNRASGISDRFSGSGSGTDFTLTITRVEPEDFALYYCQVYGASSYTFGQGTKLERKRTVAAPSVFIFPPSDEQLKSGTASVVCLLNNFYPREAKVQWKVDNALQSGNSQESVTEQDSKDSTYSLSSTLTLSKADYEKHKVYACEVTHQGLSSPVTKSFNRGEC
[1]
  EC50: 0.183 µg/mL
[2]
  EC50: 0.231 µg/mL
Human DR4HsECD-FcHisCtag
  binding result: no binding (tested: 800 nM)

B3: IgG1-DR4-FERR (antibody, V domains shown)
VH: QVQLQESGPGLVKPSGTLSLTCAVSGGSISSYSWWSWIRQPPGKGLEWIGELYHSGSTNYNPSLKSRVTISVDKSKNQFSLKLRSVTAADTAVYYCVRGVATIDYWGQGTLVTVSS
VL: QSALTQPPSASGSPGQSVTISCTGTSSDVGGYNFVSWYQQDPGKAPKLLIYEVTKRPSGVPDRFSGSKSGNTASLTVSGLQAEDEADYYCSSYAGSNNVMFGGGTKLTVLG
notes: Bivalent monoclonal IgG1 lambda
[3]
  EC50: 0.14 µg/mL
